# Read-outs that look alike come from different tables or passages of the source.
# T1: O5-AA
# T1 chain: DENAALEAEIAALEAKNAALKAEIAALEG
# T2: O6-AA
# T2 chain: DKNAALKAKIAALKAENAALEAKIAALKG
# T3: O7-AA
# T3 chain: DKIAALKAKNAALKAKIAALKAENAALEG
# T4: O8-AA
# T4 chain: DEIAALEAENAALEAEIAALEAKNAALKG
# T5: P10-AA
# T5 chain: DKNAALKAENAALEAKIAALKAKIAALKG
# T6: P6-AA-1HGe-A
# T6 chain: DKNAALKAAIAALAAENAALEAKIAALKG
# T7: P6-AA-1HGe-D
# T7 chain: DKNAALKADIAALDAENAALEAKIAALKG
# T8: P6-AA-1HGe-H
# T8 chain: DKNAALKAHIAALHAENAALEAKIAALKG
# T9: P6-AA-1HGe-M
# T9 chain: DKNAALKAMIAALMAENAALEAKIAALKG
# T10: P6-AA-1HGe-Q
# T10 chain: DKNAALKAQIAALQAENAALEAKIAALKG
# T11: P6-AA-1HGe-R
# T11 chain: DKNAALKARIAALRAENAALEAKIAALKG
# T12: P6-AA-1HGe-S
# T12 chain: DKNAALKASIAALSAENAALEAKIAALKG
# T13: P6-AA-1HGe-T
# T13 chain: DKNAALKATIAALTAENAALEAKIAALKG
# T14: P6-AA-1HGe-W
# T14 chain: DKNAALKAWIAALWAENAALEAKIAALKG
# T15: P9-AA
# T15 chain: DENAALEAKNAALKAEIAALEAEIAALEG
# T16: APC2724-AA
# T16 chain: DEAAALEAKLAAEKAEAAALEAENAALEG
# T17: APC2811-AA
# T17 chain: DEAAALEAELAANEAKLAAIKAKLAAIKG
# T18: APC2981-AA
# T18 chain: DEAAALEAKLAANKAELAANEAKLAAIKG
# T19: APC3265-AA
# T19 chain: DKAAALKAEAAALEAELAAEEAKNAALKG
# T20: APC3323-AA
# T20 chain: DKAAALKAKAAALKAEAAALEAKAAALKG
# T21: APC3354-AA
# T21 chain: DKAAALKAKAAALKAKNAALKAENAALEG
# T22: APC3881-AA
# T22 chain: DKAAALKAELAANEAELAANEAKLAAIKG
# T23: APC4100-AA
# T23 chain: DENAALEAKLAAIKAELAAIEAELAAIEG
# T24: APC4336-AA
# T24 chain: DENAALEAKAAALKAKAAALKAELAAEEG
# T25: APC5009-AA
# T25 chain: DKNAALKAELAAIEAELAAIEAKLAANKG
# T26: APC542-AA
# T26 chain: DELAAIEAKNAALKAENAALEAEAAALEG
# T27: APC5531-AA
# T27 chain: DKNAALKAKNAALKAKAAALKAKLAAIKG
# T28: APC6088-AA
# T28 chain: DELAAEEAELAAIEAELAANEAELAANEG
# T29: APC7524-AA
# T29 chain: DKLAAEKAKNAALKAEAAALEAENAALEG
# T30: APC8401-AA
# T30 chain: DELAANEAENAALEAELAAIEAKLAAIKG
# T31: APC8516-AA
# T31 chain: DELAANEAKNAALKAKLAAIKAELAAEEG
# T32: APC9141-AA
# T32 chain: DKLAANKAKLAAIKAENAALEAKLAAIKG
# T33: APC9182-AA
# T33 chain: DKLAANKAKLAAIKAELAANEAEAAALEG
# T34: APC9291-AA
# T34 chain: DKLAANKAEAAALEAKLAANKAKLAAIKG
# T35: APC9806-AA
# T35 chain: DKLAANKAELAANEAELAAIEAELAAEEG
# What was measured:
# Experiment in all cases: two-hybrid library CCmax;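 note: natural log of median RNA to DNA barcode read ratio; higher means stronger binding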
# O5-AA = target: T1, O5-AA
# O6-AA = target: T2, O6-AA; conditions: mean of both orientations
# O7-AA = target: T3, O7-AA; conditions: mean of both orientations
# O8-AA = target: T4, O8-AA; conditions: mean of both orientations
# P10-AA = target: T5, P10-AA; conditions: mean of both orientations
# P6-AA-1HGe-A = target: T6, P6-AA-1HGe-A; conditions: mean of both orientations
# P6-AA-1HGe-D = target: T7, P6-AA-1HGe-D
# P6-AA-1HGe-H = target: T8, P6-AA-1HGe-H; conditions: mean of both orientations
# P6-AA-1HGe-M = target: T9, P6-AA-1HGe-M; conditions: mean of both orientations
# P6-AA-1HGe-Q = target: T10, P6-AA-1HGe-Q; conditions: mean of both orientations
# P6-AA-1HGe-R = target: T11, P6-AA-1HGe-R; conditions: mean of both orientations
# P6-AA-1HGe-S = target: T12, P6-AA-1HGe-S; conditions: mean of both orientations
# P6-AA-1HGe-T = target: T13, P6-AA-1HGe-T; conditions: mean of both orientations
# P6-AA-1HGe-W = target: T14, P6-AA-1HGe-W; conditions: mean of both orientations
# P9-AA = target: T15, P9-AA; conditions: mean of both orientations
# APC2724-AA = target: T16, APC2724-AA
# APC2811-AA = target: T17, APC2811-AA; conditions: mean of both orientations
# APC2981-AA = target: T18, APC2981-AA; conditions: mean of both orientations
# APC3265-AA = target: T19, APC3265-AA; conditions: mean of both orientations
# APC3323-AA = target: T20, APC3323-AA; conditions: mean of both orientations
# APC3354-AA = target: T21, APC3354-AA; conditions: mean of both orientations
# APC3881-AA = target: T22, APC3881-AA; conditions: mean of both orientations
# APC4100-AA = target: T23, APC4100-AA
# APC4336-AA = target: T24, APC4336-AA; conditions: mean of both orientations
# APC5009-AA = target: T25, APC5009-AA; conditions: mean of both orientations
# APC542-AA = target: T26, APC542-AA; conditions: mean of both orientations
# APC5531-AA = target: T27, APC5531-AA; conditions: mean of both orientations
# APC6088-AA = target: T28, APC6088-AA; conditions: mean of both orientations
# APC7524-AA = target: T29, APC7524-AA; conditions: mean of both orientations
# APC8401-AA = target: T30, APC8401-AA; conditions: mean of both orientations
# APC8516-AA = target: T31, APC8516-AA; conditions: mean of both orientations
# APC9141-AA = target: T32, APC9141-AA; conditions: mean of both orientations
# APC9182-AA = target: T33, APC9182-AA; conditions: mean of both orientations
# APC9291-AA = target: T34, APC9291-AA; conditions: mean of both orientations
# APC9806-AA = target: T35, APC9806-AA; conditions: mean of both orientations
Binder,interaction score (P6-AA-1HGe-A),interaction score (P6-AA-1HGe-D; mean of both orientations),interaction score (P6-AA-1HGe-H),interaction score (P6-AA-1HGe-M),interaction score (P6-AA-1HGe-Q),interaction score (P6-AA-1HGe-R),interaction score (P6-AA-1HGe-S),interaction score (P6-AA-1HGe-T),interaction score (P6-AA-1HGe-W),other results
DENAALEAEIAALEAKNAALKAEIAALEG [O5-AA],2.15,0.905,2.44,2.3,2.4,2.38,2.12,2.21,2.02,interaction score (O5-AA): -1.71; interaction score (O6-AA): 1.88; interaction score (O7-AA): -0.71; interaction score (O8-AA): -0.935; interaction score (P10-AA): 0.434; interaction score (P9-AA): -1.56
DEAAALEAKLAAEKAEAAALEAENAALEG [APC2724-AA],,,,,,,,,,interaction score (APC2724-AA): -1.55; interaction score (APC2811-AA): -1.76; interaction score (APC2981-AA): -1.68; interaction score (APC3265-AA): -1.62; interaction score (APC3323-AA): -1.8; interaction score (APC3354-AA): -1.48; interaction score (APC3881-AA): -2.62; interaction score (APC4100-AA): -1.68; interaction score (APC4336-AA): -2.23; interaction score (APC5009-AA): -1.67; interaction score (APC542-AA): -1.75; interaction score (APC5531-AA): -1.53; interaction score (APC6088-AA): -1.76; interaction score (APC7524-AA): -1.54; interaction score (APC8401-AA): -1.54; interaction score (APC8516-AA): -1.9; interaction score (APC9141-AA): -3.52; interaction score (APC9182-AA): -1.95; interaction score (APC9291-AA): -1.76; interaction score (APC9806-AA): -1.79
DENAALEASIAALSAKNAALKAEIAALEG [P5-AA-1HGe-S],1.91,0.0672,1.75,1.86,2.1,2.01,1.13,1.76,0.993,
DENAALEAMIAALMAKNAALKAEIAALEG [P5-AA-1HGe-M],2.5,1.82,2.03,2.35,2.27,1.93,1.92,2.3,2.11,

# Further lines, with some results ahead:
interaction score (P6-AA-1HGe-A),interaction score (P6-AA-1HGe-D; mean of both orientations),interaction score (P6-AA-1HGe-H),interaction score (P6-AA-1HGe-M),interaction score (P6-AA-1HGe-Q),interaction score (P6-AA-1HGe-R),interaction score (P6-AA-1HGe-S),interaction score (P6-AA-1HGe-T),interaction score (P6-AA-1HGe-W),Binder,other results
2.2,,2.03,2.18,2.32,2.02,1.91,2.05,1.71,DENAALEATIAALTAKNAALKAEIAALEG [P5-AA-1HGe-T],interaction score (P6-AA-1HGe-D): 1.95
1.95,1.37,1.95,1.95,2.22,1.82,1.94,2.24,1.32,DENAALEAYIAALYAKNAALKAEIAALEG [P5-AA-1HGe-Y],

# Reference: PMC10397247
